Assay results published in doi:10.1101/2020.07.19.210252.

biological target: FXR1-GST (Homo sapiens, UniProt P51114 1-621); experiment: EMSA
Sequence (P51114 whole entry): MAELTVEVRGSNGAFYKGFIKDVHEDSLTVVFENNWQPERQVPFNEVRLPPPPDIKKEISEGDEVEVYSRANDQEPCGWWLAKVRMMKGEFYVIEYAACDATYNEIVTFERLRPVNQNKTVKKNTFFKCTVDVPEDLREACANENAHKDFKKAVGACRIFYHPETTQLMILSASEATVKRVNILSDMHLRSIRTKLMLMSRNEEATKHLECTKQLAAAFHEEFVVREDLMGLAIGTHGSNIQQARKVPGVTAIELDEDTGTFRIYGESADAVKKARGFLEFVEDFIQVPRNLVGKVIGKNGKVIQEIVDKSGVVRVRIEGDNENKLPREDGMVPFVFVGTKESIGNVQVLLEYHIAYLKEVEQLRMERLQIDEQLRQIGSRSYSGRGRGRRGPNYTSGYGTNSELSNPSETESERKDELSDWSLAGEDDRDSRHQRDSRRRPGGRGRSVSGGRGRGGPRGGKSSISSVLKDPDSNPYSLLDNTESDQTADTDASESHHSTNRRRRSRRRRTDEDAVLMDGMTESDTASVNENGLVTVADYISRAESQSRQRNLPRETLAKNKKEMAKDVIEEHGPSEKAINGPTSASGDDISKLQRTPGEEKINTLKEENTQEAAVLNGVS

Binding result, binds:
UUUGUAUUUAAGAAU (ssRNA) [cMYC 3'UTR-ARE2]
UUGUGAUUUAUUUUG (ssRNA) [cMYC 3'UTR-ARE5]
UUUUUAUUUAAGUAC (ssRNA) [cMYC 3'UTR-ARE4]
GAAAGAUUUAGCCAU (ssRNA) [cMYC 3'UTR-ARE1]
